Experimental data as given in US12331310B2, “Cell membrane penetrating conjugates for gene editing” (priority 2019, dated 2025).
Several values for one entry are separate records, joined by “and”; a condition that tells them apart may be missing. Equal values may be shown once.

B1: AlbG: recombinant β helical pentapeptide-repeat protein AlbG, amino acid sequence SEQ ID NO: 1 (protein)
chain: MPAKTLESKDYCGESFVSEDRSGQSLESIRFEDCTFRQCNFTEAELNRCKFRECEFVDCNLSLISIPQTSFMEVRFVDCKMLGVNWTSAQWPSVKMEGALSFERCILNDSLFYGLYLAGVKMVECRIHDANFTEADCEDADFTQSDLKGSTFHNTKLTGASFIDAVNYHIDIFHNDIKRARFSLPEAASLLNSLDIELSD
modifications: Amino acid sequence of AlbG protein
B2: EfsQNR: recombinant β helical pentapeptide-repeat protein EfsQNR, amino acid sequence SEQ ID NO: 2 (protein)
chain: GSHMKITYPLPPNLPEQLPLLTNCQLEDEAILENHLYQQIDLPNQEVRNLVFRDAVFDHLSLANGQFASFDCSNVRFEACDFSNVEWLSGSFHRVTFLRCNLTGTNFADSYLKDCLFEDCKADYASFRFANFNLVHFNQTRLVESEFFEVTWKKLLLEACDLTESNWLNTSLKGLDFSQNTFERLTFSPNYLSGLKVTPEQAIYLASALGLVIT
modifications: Amino acid sequence of EfsQNR protein

Tests used:
Assay type in all cases: cell-based
HeLa cells [1] = assay: Cellular uptake of drug (ruthenium metal complex), monitored by MTT assay; details: 24 hours, uptake correlated to cell death by MTT assay
Procedure: Cellular uptake of drug—HeLa cells were used for determining the enhanced uptake of the drug using the cell penetrating conjugate of the present invention. HeLa cells were seeded at a concentration of 10,000 in a 96-well plate and allowed to grow for 6-8 hours. Ruthenium metal complex and EfsQNR were mixed in different ratios of 1:1, 1:2, and 1:3 to form a conjugate, which was subsequently added to the cells. […] The cell death after 24 hours was monitored by MTT assay as described previously and was correlated to the percentage uptake of ruthenium-EfsQNR conjugate by HeLa cells.
FIG. 16 depicts the cellular uptake of the ruthenium metal complex Ru(CO)3Cl glycinate in HeLa cells. The ruthenium metal complex was conjugated with EfsQNR protein to form a conjugate consisting of ruthenium metal complex-EfsQNR. The HeLa cells were treated with the ruthenium metal complex-EfsQNR conjugate as described above (see “Cellular penetration studies” above) and uptake of the complex was detected by checking the viability of the cells by performing MTT assay as described previously. […] Therefore, it can be ascertained that the conjugate comprising EfsQNR protein facilitated 50-fold higher cellular uptake as compared to ruthenium metal complex alone. […]

[2] = tested on: yeast cells (Saccharomyces cerevisiae, Kluveromyces marxianus and Candida albicans); assay: Uptake of A-520 labelled proteins in yeast cells; details: protein labelled with green fluorescent dye (A-520), 10 μM, 24 hours
Procedure: (§1) The uptake of labelled proteins was checked by treating E-coli and yeast (Kluveromyces) cells with different labelled proteins such as AlbG (SEQ ID NO: 1), EfsQNR (SEQ ID NO: 2). E coli or Kluveromyces cells were inoculated and grown overnight until OD reached 0.6. The cells were diluted to 50 times and 3 micromolar labelled protein (conjugate) was added. The cells were further grown under standard growth condition (37° C. shaking condition) for 24 h. The treated cells were then centrifuged and washed in PBS for 3-4 times. Then the cells were dispersed in 100 microliter PBS and then imaged in fluorescence/confocal microscope.
(§2) • Respective bacteria and yeast strains were inoculated the day before the experiment and allowed to grow overnight; • The cells were centrifuged and 2 ml fresh media was added; • 100-200 μL of cells were added to the mixture; • 10 μM of green labelled CPP was added; • Fresh media was added to bring the volume to 1 mL; • After 24 hours the treated cells were centrifuged and washed in PBS 3-4 times; • the cells were dispersed in 100 microliter PBS and then imaged in fluorescence/confocal microscope (FIGS. 25 and 26). […]

HeLa cells [3] = assay: MTT toxicity assay of AlbG and EfsQNR proteins; details: 30 μM protein; for viability as compared to the control cells: MTT; for absorbance values at 570 nm in MTT assay: triplicates, control wells 1.341-1.413
Procedure: Toxicity assay—The industry-standard MTT assay (ex-Sigma Aldrich) was performed to analyse the toxicity of β-helical protein-cytotoxic drug conjugates against mammalian cells, for example HeLa cells. The cells were cultured by using standard protocol. One million cells were seeded in confocal plates (1 cm dish), grown for 6-8 h. A mixture of the cytotoxic drug and the EfsQNR protein (mixed at a ratio of 2:1) was added to the cells and incubated at room temperature for 15 minutes to 24 h to 72 h. After the incubation, the cells were washed with PBS and treated with MTT and further incubated for 24 hours. The cells were then washed and analysed for absorbance values at 570 nm. Viable cells with active metabolism convert MTT into a purple coloured formazan product with an absorbance maximum near 570 nm. Dead cells cannot convert MTT into formazan therefore, by analysing the absorbance values at 570 nm percentage of viable cells can be calculated for a given protein or any other molecule.
MTT assay as described previously was employed to study toxicity of AlbG and EfsQNR proteins against HeLa cells. For the toxicity assay, samples of Placebo, control, AlbG (30 μM) and EfsQNR (30 μM) were used in triplicates. On observing the values, it can be appreciated that the cells treated with 30 μM of AlbG and 30 μM of EfsQNR display 95% viability as compared to the control cells.
The placebo for this experiment was 20 mM Tris buffer of pH 8.0, whereas, the control considered was only HeLa cells without adding any protein or other substrate.

[4] = tested on: plant cells (Arabidopsis); assay: Uptake of A-520 labelled proteins in plant cells; details: protein labelled with green fluorescent dye (A-520), 20 μM, 24 hours
Procedure: • Respective bacteria and yeast strains were inoculated the day before the experiment and allowed to grow overnight; • The cells were centrifuged and 2 ml fresh media was added; • 100-200 μL of cells were added to the mixture; • 10 μM of green labelled CPP was added; • Fresh media was added to bring the volume to 1 mL; • After 24 hours the treated cells were centrifuged and washed in PBS 3-4 times; • the cells were dispersed in 100 microliter PBS and then imaged in fluorescence/confocal microscope (FIGS. 25 and 26). Protocol for Uptake in Plant Cells (Arabidopsis): • Plants were grown for 7 days prior to the experiment; • 20 μM of different cell-penetrating proteins such as AlbG (SEQ ID NO: 1), EfsQNR (SEQ ID NO: 2) labelled with a green fluorescent dye (A-520) were added to the plants in buffer [3 plants grown for 7 days] in 500 μL PBS; • The mixture was placed in a growth room for 24 hours under standard growth conditions (kept static in a room of continuous supply of light and 23° C. temperature); • The plants were washed with PBS 3 times and fresh PBS was then added and cells visualized under microscope. Non-coloured cells such as the cells of the roots and stems were chosen for visualisation to avoid interference (FIGS. 23 and 24). […]

drosophila embryos = assay: Uptake of A-520 labelled proteins in drosophila embryos; details: protein labelled with green fluorescent dye (A-520), 10 μM, 2 h
zebrafish embryos = assay: Uptake of A-520 labelled proteins in zebrafish embryos; details: protein labelled with green fluorescent dye (A-520), 10 μM, 2 h
[5] = tested on: drug resistant strains of bacteria (Pseudovibrio sp. Ad37/5/13/14 and Enterobacter); assay: Uptake of A-520 labelled proteins in bacteria; details: protein labelled with green fluorescent dye (A-520), 10 μM, 24 hours
Procedure: as §1, §2

Molecule	cellular uptake (HeLa cells [1]) [%]	uptake observed by confocal laser scanning microscopy [2]	viability as compared to the control cells (HeLa cells [3]) [%]	absorbance values at 570 nm in MTT assay (HeLa cells [3])	uptake observed by confocal laser scanning microscopy [4]	uptake observed by confocal laser scanning microscopy (drosophila embryos)	uptake observed by confocal laser scanning microscopy (zebrafish embryos)	uptake observed by confocal laser scanning microscopy [5]
NCC(=O)O.[C-]#[O+].[C-]#[O+].[C-]#[O+].[Cl][Ru] [ruthenium metal complex, Ru(CO)3Cl glycinate]	0.5							
B1		taken up	95	1.03 and 0.932 and 1.002	taken up	taken up	taken up	taken up
B2		taken up	95	0.901 and 1.111 and 0.971	taken up	taken up	taken up	taken up
